{
  "source": "patent US9175090B2",
  "about": "“Methods of using an antibody to inhibit WNT-mediated signaling in cancer” (Vanderbilt University, priority 2011, dated 2015)",
  "molecules": {"B1": {"name": "mabLRP5/6: stable hybridoma line monoclonal antibody against LRP5/6 raised in BALB/c mice with human LRP6 fragments; inhibits Wnt signaling (antibody, V domains shown)", "VH": "QVQLKESGPGLVASSQSLSITCTVSGFSLSRYSVHWVRQPPGKGLEWLGMIWGGGSTDYNSALKSRLGISKDNSKSQVFLKMNSLQTDDTAMYYCAGTGSWFAYWGQGTLVTVSA", "VL": "DIQMTQSPASLSASVGETVTITCRASGNIHNYLAWYQQKQGKSPQLLVYNAKTLADGVPSRFSGSGSGTQYSLKINSLQPEDFGSYYCQHFWSTPWTFGGGTKLEIK"}},
  "key": {"[1]": {"molecular_target": "CK1α (Homo sapiens, UniProt P48729)", "sequence (P48729 whole entry)": "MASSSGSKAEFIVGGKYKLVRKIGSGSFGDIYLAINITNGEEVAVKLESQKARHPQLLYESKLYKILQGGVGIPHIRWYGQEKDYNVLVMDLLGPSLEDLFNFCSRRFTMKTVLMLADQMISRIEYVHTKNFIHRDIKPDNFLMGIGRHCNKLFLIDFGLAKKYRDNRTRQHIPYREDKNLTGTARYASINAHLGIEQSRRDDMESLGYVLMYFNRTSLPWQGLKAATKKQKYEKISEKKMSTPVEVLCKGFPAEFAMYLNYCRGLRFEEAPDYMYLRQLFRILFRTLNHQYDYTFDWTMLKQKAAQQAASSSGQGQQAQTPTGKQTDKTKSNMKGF", "assay": "Binding and activation of purified recombinant kinases", "assay_type": "biochemical"}, "[2]": {"tested_on": "Wnt signaling (TOPflash, TCF/Lef1 promoter luciferase)", "assay": "TOPflash reporter assay in HEK 293 STF cells treated with Wnt3a-conditioned media", "assay_type": "cell-based", "details": "24 hours, read-out: IC50, inhibition of TOPflash activation (Wnt signaling)", "text": "Graph represents mean±s.e.m of TOPflash signal normalized to cell number (performed in quadruplicate). […] Data shown represent mean of four independent amplification reactions, graphed as relative expression to unstimulated cells. Expression levels were normalized to β-actin mRNA. Error bars, RQ values with 95% confidence."}, "[3]": {"molecular_target": "β-catenin degradation complex (Homo sapiens, UniProt P48729)", "sequence (P48729 whole entry, one chain of several)": "as the sequence (P48729 whole entry) above", "assay": "In vitro kinase reaction with purified GSK3, CK1α, Axin and β-catenin", "assay_type": "biochemical", "details": "pyrvinium 10 nM, proteins 100 nM each", "description": "(§1) FIGS. 3A-C. […] Phosphorylation of β-catenin on GSK3 sites (p33,37,41) and the priming CK1α site (p45) was detected by immunoblotting. […] Cells were treated with Wnt3a-conditioned media and lysates were assayed for TOPflash to assess Wnt signaling.\n(§2) The inventors used a cell line with reduced CK1α levels due to inducible expression of shRNA against CK1α."}, "[4]": {"molecular_target": "GSK3 (Homo sapiens, UniProt P49841)", "sequence (P49841 whole entry)": "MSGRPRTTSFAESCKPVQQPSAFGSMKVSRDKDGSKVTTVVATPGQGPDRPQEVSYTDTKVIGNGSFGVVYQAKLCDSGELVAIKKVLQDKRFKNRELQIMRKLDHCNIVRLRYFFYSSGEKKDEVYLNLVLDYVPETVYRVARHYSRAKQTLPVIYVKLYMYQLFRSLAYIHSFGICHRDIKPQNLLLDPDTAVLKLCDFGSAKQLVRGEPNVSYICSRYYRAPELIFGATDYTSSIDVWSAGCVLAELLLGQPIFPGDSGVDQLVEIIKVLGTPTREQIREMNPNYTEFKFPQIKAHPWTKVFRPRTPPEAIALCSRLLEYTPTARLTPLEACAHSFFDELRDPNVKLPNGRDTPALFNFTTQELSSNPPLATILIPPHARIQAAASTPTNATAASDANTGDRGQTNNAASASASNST", "assay": "GSK3 kinase activity", "assay_type": "biochemical", "details": "data not shown", "text": "as §2"}, "[5]": {"tested_on": "AXIN2 and c-MYC", "assay": "Real-time RT-PCR of endogenous Wnt target genes", "assay_type": "cell-based", "details": "normalized to β-actin mRNA"}, "[6]": {"tested_on": "Wnt signaling (TOPflash) in shRNA-CK1α cells", "assay": "TOPflash in Jurkat cell line with inducible shRNA for CK1α", "assay_type": "cell-based", "details": "pyrvinium 30 nM, Wnt3a-conditioned media", "description": "as §1, §2"}, "[7]": {"tested_on": "male C57Bl/6 mice with myocardial infarct", "assay_type": "in vivo", "text": "FIGS. 5A-D. Mouse MI model. Representative mouse EKG tracings pre (FIG. 5A) and post (FIG. 5B) coronary artery ligation. […] Arrows mark lateral and posterior left ventricle (LV). LVIDD, LVIDS=LV internal diameter at systole and […], respectively. RV=right ventricle. […] Cardiac dimensions were obtained from 2-D guided M-mode images (100 frames/sec) and were read blinded using short axis and a parasternal long-axis views with the leading edge method. All echo measurements were averaged over 3 consecutive beats on unsedated mice at 7 and 30 days after infarction. Statistical significance assessed by the Wilcoxon rank sum test.\nMyocardial infarcts were induced in male C57Bl/6 mice by coronary ligation (FIG. 5) as previously described (Alfaro et al., 2008).\nVentricular remodeling and cardiac functional parameters will be assessed by echo.\nMammalian cardiomyocytes irreversibly withdraw from the cell cycle soon after birth and undergo terminal differentiation. […] Therefore, cardiac injury causes permanent myocardial loss and cardiac dysfunction. […] Proliferation was assessed by immunostaining for Ki-67. […] Phosphorylation of histone 3 (pH3) on Ser 10 is an established cellular marker for chromosome condensation during mitotic prophase (van Amerongen and Engel, 2008)."}, "[8]": {"tested_on": "Ki-67+ and pH3+ cells in remote LV", "assay": "Immunohistology of post-MI myocardium after antibody pretreatment", "assay_type": "in vivo, mice", "details": "treated 12 hours prior to MI, 14 days, n=1", "description": "(§3) The canonical Wnt signaling pathway was assessed using luciferase activity in HEK cells stably transfected with TOPflash reporter. Cells were treated with recombinant Wnt 3a to activate Wnt signaling. […] Cycle thresholds for 18S mRNA transcripts were used to normalize between samples. n=4 mice analyzed at each time point for each cohort. Ki-67-positive cells in the heart (FIG. 8C) and pH3-positive mononucleated, differentiated cardiomyocytes in mabLRP5/6-treated remote myocardium (FIG. 8D).\nTo evaluate whether mabLRP5/6 inhibits Wnt-mediated transcription in vivo, the inventors injected 3 groups of mice IV with increasing amounts of mabLRP5/6 (2.3 μg, 4.7 μg or 9.4 μg, n=3 in each group) or control IgM. Mice were sacrificed after 48 hours and serum and tissue samples were obtained. […] Heart tissues from treated animals were homogenized and total RNA isolated for real time RT-PCR analysis (Young et al., 2005). […] The effect on Axin 2 transcript persisted at 72 hours after a single administration. To obtain evidence that mabLRP5/6 has cellular effects on post-MI myocardium, the inventors analyzed by immuno-histology paraffin-embedded sections from male mice treated with either IgM or mabLRP5/6 12 hours prior to induction of acute MI and then sacrificed 14 days later (n=1 for each condition). […]"}, "[9]": {"tested_on": "mice", "assay": "In vivo toxicity of mabLRP5/6", "details": "mouse"}, "[10]": {"tested_on": "Wnt3a-mediated luciferase activity", "assay": "Plasma of IV-treated mice tested on TOPflash reporter HEK cells", "assay_type": "in vivo", "details": "for Greater inhibition of Wnt3a-mediated luciferase activity by plasma compared to IgM controls: 9.4 μg, 100 μl plasma", "description": "as §3\n(§4) To evaluate whether mabLRP5/6 inhibits Wnt-mediated transcription in vivo, the inventors injected 3 groups of mice IV with increasing amounts of mabLRP5/6 (2.3 μg, 4.7 μg or 9.4 μg, n=3 in each group) or control IgM. Mice were sacrificed after 48 hours and serum and tissue samples were obtained. […] Heart tissues from treated animals were homogenized and total RNA isolated for real time RT-PCR analysis (Young et al., 2005). […] The effect on Axin 2 transcript persisted at 72 hours after a single administration. To obtain evidence that mabLRP5/6 has cellular effects on post-MI myocardium, the inventors analyzed by immuno-histology paraffin-embedded sections from male mice treated with either IgM or mabLRP5/6 12 hours prior to induction of acute MI and then sacrificed 14 days later (n=1 for each condition). They identified >3-fold higher Ki-67^+ and pH3^+ cells in the remote LV from the mabLRP5/6-treated mouse compared to the control IgM-treated mouse (FIGS. 8C-D)."}, "[11]": {"tested_on": "Wnt3a-mediated Wnt signaling (LRP5/6)", "assay": "Wnt3a-mediated activation of the Wnt pathway, TOPflash reporter cell line (antibody)", "assay_type": "cell-based", "description": "FIGS. 11A-B. Wnt activated signaling. (FIG. 11A) Wnt3a activated signaling in 293 HEK cells. (FIG. 11B) Wnt signaling in SW480 colorectal cancer cell line with mutant APC.\nThe inventors examined effects of antibodies on Wnt signaling activated by recombinant Wnt3a, which was added to the media, and effects of antibodies on Wnt signaling in a colorectal cancer line (SW480) that has constitutively active Wnt signaling due to a mutation in the tumor suppressor, APC. […] This was unexpected because the APC mutation is downstream of the LRP6 receptor, to which the antibody is directed."}, "[12]": {"tested_on": "β-catenin nuclear accumulation, RKO cells", "assay": "Wnt3a-induced nuclear accumulation of β-catenin in RKO cells", "details": "300 pg/ml, 24 hours", "experimental": "RKO cells were treated with Wnt3a in the presence or absence of 300 pg/ml mabLRP6 for 24 hours. Cells were fixed and immunostained for β-catenin (green). DAPI (blue) stains DNA."}, "[13]": {"tested_on": "male C57Bl/6 mice with myocardial infarct", "assay": "Acute myocardial infarct model, IV antibody, echocardiography", "assay_type": "in vivo", "description": "FIG. 9. Effect of low and high dose of mabLRP5/6 adminstered post infarct as compared to […] control. LVIDD and LVIDS to represent cardiac remodeling, and EF, ejection fraction, as a measurement of cardiac function, were determined by echocardiography and are plotted as percentage difference values (mean±SD) between 7 and 30 days after infarct.\nThe inventors initiated studies to determine the effectiveness of mMABLRP5/6 on repair and regeneration of injured myocardium using an mouse acute myocardial infarct model. Myocardial infarcts were induced in 8-week old male C57Bl/6 mice ([…]) by coronary ligation (FIG. 9) as previously described (Alfaro et al., 2008). At the time of infarction, the inventors administered 10 μg or 20 μg of mabLRP5/6 in 100 μl PBS or the same amount of IgM as control, intravenously by tail vein injection. The mice received a second dose of mabLRP5/6 or control antibody 72 hours after infarct to maintain at least 50% Wnt inhibition activity in the plasma through 7 days post infarct (data not shown). Ventricular remodeling and cardiac function were analyzed by echocardiography pre-infarct and at 7 and 30 days post MI. Ventricular function was reflected by ejection fraction (EF). LV internal dimension diastolic (LVIDD) and LV internal dimension systolic (LVIDS) reflected remodeling of the infarcted ventricle (FIG. 1). […] Additional numbers of animals as well as histologic myocardial analysis and high-resolution visual sonics studies are pending to determine infarct size and elucidate effects of mabLRP5/6 on endogenous cellular myocardial repair."}, "[14]": {"tested_on": "Axin 2 and Cyclin D transcripts", "assay": "Real time RT-PCR of Wnt target genes in heart homogenates of treated mice", "assay_type": "in vivo", "description": "as §3, §4"}},
  "data": [
    {"molecule": "Cc1cc(/C=C/c2ccc3cc(N(C)C)ccc3[n+]2C)c(C)n1-c1ccccc1", "note": "[pyrvinium]", "values": [
      {"measurement": "Phosphorylation of Tau by CK1α", "setting": "[1]; data not shown", "result": "enhanced"},
      {"measurement": "Binding and activation of representative kinases", "setting": "[1]; pyrvinium 10 nM", "result": "binding and activation of CK1α alone"},
      {"measurement": "IC50", "setting": "[2]", "result": "~0.01", "unit": "µM"},
      {"measurement": "β-catenin phosphorylation (GSK3 and CK1α sites)", "setting": "[3]", "result": "dramatic increase"},
      {"measurement": "GSK3 activity", "setting": "[4]", "result": "no observable effect"},
      {"measurement": "Levels of endogenous Wnt target genes AXIN2 and c-MYC", "setting": "[5]", "result": "decreases"},
      {"measurement": "Inhibition of TOPflash activity in shRNA-CK1α cells", "setting": "[6]", "result": "failed to inhibit"},
      {"measurement": "Infarct size, comparison between the two cohorts", "setting": "[7]; data not shown", "result": "did not reflect any statistically significant differences"},
      {"measurement": "Numbers of Ki-67-positive cells in peri-infarct and remote myocardium, versus Cmpd 211", "setting": "[7]; mouse, in vivo", "result": "significantly higher"},
      {"measurement": "Numbers of Ki-67-positive cells in the scar, versus Cmpd 211", "setting": "[7]; mouse, in vivo", "result": "similar"},
      {"measurement": "Average difference in fractional shortening between days 7 and 30", "setting": "[7]; single 200 nM injection, p<0.05", "result": "22.3+5.2"},
      {"measurement": "Myocyte proliferation in sham-operated animals", "setting": "[7]; single intramyocardial injection into LV apex, data not shown", "result": "did not induce myocyte proliferation"}
    ]},
    {"molecule": "B1", "values": [
      {"measurement": "Ki-67+ cells in remote LV, higher than control IgM", "setting": "[8]", "result": "> 3", "unit": "fold"},
      {"measurement": "pH3+ cells in remote LV, higher than control IgM", "setting": "[8]", "result": "> 3", "unit": "fold"},
      {"measurement": "In vivo toxicity", "setting": "[9]", "result": "minimal toxicity"},
      {"measurement": "Greater inhibition of Wnt3a-mediated luciferase activity by plasma compared to IgM controls", "setting": "[10]; 48 hours after administration", "result": "~5", "unit": "fold"},
      {"measurement": "Greater inhibition of Wnt3a-mediated luciferase activity by plasma compared to IgM controls", "setting": "[10]; 72 hours after administration", "result": "~2", "unit": "fold"},
      {"measurement": "Wnt signaling in TOPflash reporter cell line treated with plasma", "setting": "[10]; IV 4.7 and 9.4 μg, 50 μl plasma, 48 and 72 hours", "result": "inhibited Wnt signaling"},
      {"measurement": "IC50, inhibition of Wnt signaling", "setting": "[11]", "result": "~0.2", "unit": "ng/mL"},
      {"measurement": "Wnt3a-induced nuclear accumulation of β-catenin", "setting": "[12]", "result": "blocked"},
      {"measurement": "Wnt3a-induced nuclear accumulation of β-catenin", "setting": "[12]; listed as mabLRP6", "result": "inhibits"},
      {"measurement": "Percentage difference in LVIDS between day 7 and day 30", "setting": "[13]; 20 μg compared with 10 μg dose or control IgM", "result": "reduced in a dose-dependent manner"},
      {"measurement": "Decrease in ejection fraction (EF) between day 7 and day 30", "setting": "[13]; high dose", "result": "decreased less"},
      {"measurement": "Percentage difference in LVIDD between day 7 and day 30", "setting": "[13]; high dose (20 μg IV at infarction and 72 hours)", "result": "5.36±0.83", "unit": "percentage"},
      {"measurement": "Decrease in ejection fraction (EF) between day 7 and day 30", "setting": "[13]; low dose", "result": "~6", "unit": "%"},
      {"measurement": "Percentage difference in LVIDD between day 7 and day 30", "setting": "[13]; low dose (10 μg IV at infarction and 72 hours)", "result": "6.23 ± 2.3", "unit": "percentage"},
      {"measurement": "Wnt inhibition activity in the plasma", "setting": "[13]; second dose at 72 hours, through 7 days post infarct, data not shown", "result": "at least 50%"},
      {"measurement": "Reduction in Axin 2 transcripts in heart compared to controls", "setting": "[14]; 48 h", "result": "~2", "unit": "fold"},
      {"measurement": "Reduction in Cyclin D transcripts in heart compared to controls", "setting": "[14]; 48 h", "result": "~2", "unit": "fold"},
      {"measurement": "Effect on Axin 2 transcript in heart", "setting": "[14]; 72 hours after a single administration", "result": "persisted"}
    ]}
  ]
}
